The values that follow come from US20260217835A1 (published 2026).

In test [1] the target is T1, human FcγRIIIa, allotype 176F (human, UniProt P08637 17-208, limits assumed).
T1 construct: also called hFcgRIIIa_176F
The test can be described thus: SPR, Biacore T200, pH 7.4; antibody captured on Protein L, FcγR as analyte.

In test [2] the target is T2, human FcγRIIIa, allotype 176V (human, UniProt P08637 17-208, limits assumed).
T2 construct: also called hFcgRIIIa_176V
Described as above.

The target of the next test is T3, human FcγRIa (human, UniProt P12314 16-292, limits assumed).
T3 construct: also called hFcgRIa
The test is described as above.

Test [3] addresses T4, human FcγRIIa, allotype 167R (human, UniProt P12318 34-217, limits assumed).
T4 construct: also called hFcgRIIa_167R
T4 sequence (looked up): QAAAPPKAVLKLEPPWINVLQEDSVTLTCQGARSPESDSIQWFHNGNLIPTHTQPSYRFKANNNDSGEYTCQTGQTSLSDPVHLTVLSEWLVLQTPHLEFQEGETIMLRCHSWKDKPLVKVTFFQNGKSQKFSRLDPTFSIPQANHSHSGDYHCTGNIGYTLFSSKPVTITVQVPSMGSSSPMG
The test is described as above.

Test [4] deals with T5, human neonatal Fc receptor (FcRn) (human, UniProt P55899 24-290).
T5 construct: also called human FcRn
The test can be described thus: SPR (Biacore T200), antibody captured on Protein L, human FcRn as analyte, pH 6.0, 25 C, steady-state model. On the technique in general: In SPR one partner is held on a chip, and binding of the other changes the refractive index at the surface.

B1: Sample No. 87 (antibody, human IgG1, kappa)
heavy: QVQLQESGPGLVRPSQTLSLTCTVSGYSITSDHAWSWVRQPPGRGLEWIGYISYSGITTYNPSLKSRVTMLRDTSKNQFSLRLSSVTAADTAVYYCARSLARTTAMDYWGQGSLVTVSSASTKGPSVFPLAPSSKSTSGGTAALGCLVKDYFPEPVTVSWNSGALTSGVHTFPAVLQSSGLYSLSSVVTVPSSSLGTQTYICNVNHKPSNTKVDKRVEPKSCDKTHTCPPCPAPELLGGPSVFLFPPKPKDTLMISRTPEVTCVVVDVSHEDPEVKFNWYVDGVEVHNAKTKPREEQYNSTYRVVSVLTVLHQDWLNGKEYKCKVSNKALPAPIEKTISKAKGQPREPQVYTLPPSREEMTKNQVSLWCAVKGFYPSDIAVEWESNGQPENNYKTTPPVLDSDGSFFLVSKLTVDKSRWQQGNVFSCSVMHEALHNHYTQKSLSLSP
light: not shown
notes: also called T366W/L368A/Y407V
Take B1: the binding result (in test [1]; in test [2]; in the test with human FcγRIa; in test [3]) was “binds” each time.

B2: Sample No. 111 (antibody, human IgG1, kappa)
heavy: QVQLQESGPGLVRPSQTLSLTCTVSGYSITSDHAWSWVRQPPGRGLEWIGYISYSGITTYNPSLKSRVTMLRDTSKNQFSLRLSSVTAADTAVYYCARSLARTTAMDYWGQGSLVTVSSASTKGPSVFPLAPSSKSTSGGTAALGCLVKDYFPEPVTVSWNSGALTSGVHTFPAVLQSSGLYSLSSVVTVPSSSLGTQTYICNVNHKPSNTKVDKRVEPKSCDKTHTCPPCPAPELLGGPSVFLFPPKPKDTLMISRTPEVTCVVVDVSHEDPEVKFNWYVDGVEVHNAKTKPREEQYNSTYRVVSVLTVLHQDWLNGKEYKCKVSNKALPAPIEKTISKAKGQPREPQVYTLPPSREEMTKNQVSLTCLVKGFYPSDIAVEWESNGQPENNYDTTPPVLKSDGSFFLYSDLTVDKSRWQQGNVFSCSVMHEALHNHYTQKSLSLSP
light: not shown
notes: also called K392D/D399K/K409D
As to B2, the binding result (in test [1]; in test [2]; with human FcγRIa; in test [3]) was “binds” in each case.

B3: Sample No. 119, IgG1 antibody with E345R/K360E/D399M/Y407A/K409V (heavy chain SEQ ID NO: 58, light chain SEQ ID NO: 61) (antibody)
heavy: QVQLQESGPGLVRPSQTLSLTCTVSGYSITSDHAWSWVRQPPGRGLEWIGYISYSGITTYNPSLKSRVTMLRDTSKNQFSLRLSSVTAADTAVYYCARSLARTTAMDYWGQGSLVTVSSASTKGPSVFPLAPSSKSTSGGTAALGCLVKDYFPEPVTVSWNSGALTSGVHTFPAVLQSSGLYSLSSVVTVPSSSLGTQTYICNVNHKPSNTKVDKRVEPKSCDKTHTCPPCPAPELLGGPSVFLFPPKPKDTLMISRTPEVTCVVVDVSHEDPEVKFNWYVDGVEVHNAKTKPREEQYNSTYRVVSVLTVLHQDWLNGKEYKCKVSNKALPAPIEKTISKAKGQPRRPQVYTLPPSREEMTENQVSLTCLVKGFYPSDIAVEWESNGQPENNYKTTPPVLMSDGSFFLASVLTVDKSRWQQGNVFSCSVMHEALHNHYTQKSLSLSP
light: not shown
Usually Kd stands for the constant that tells how readily two partners part at equilibrium. Turning to B3, the affinity in test [4], expressed as Kd, was 1.61 µM. That is a single-digit micromolar value.

B4: Sample No. 102 (antibody, human IgG1, kappa)
heavy: QVQLQESGPGLVRPSQTLSLTCTVSGYSITSDHAWSWVRQPPGRGLEWIGYISYSGITTYNPSLKSRVTMLRDTSKNQFSLRLSSVTAADTAVYYCARSLARTTAMDYWGQGSLVTVSSASTKGPSVFPLAPSSKSTSGGTAALGCLVKDYFPEPVTVSWNSGALTSGVHTFPAVLQSSGLYSLSSVVTVPSSSLGTQTYICNVNHKPSNTKVDKRVEPKSCDKTHTCPPCPAPELLGGPSVFLFPPKPKDTLMISRTPEVTCVVVDVSHEDPEVKFNWYVDGVEVHNAKTKPREEQYNSTYRVVSVLTVLHQDWLNGKEYKCKVSNKALPAPIEKTISKAKGQPREPQVYTLPPSREEMTKNQVSLTCLVKGFYPSDIAVEWESNGQPENNYLTWPPVLDSDGSFALVSKLTVDKSRWQQGNVFSCSVMHEALHNHYTQKSLSLSP
light: not shown
notes: also called K392L/T394W/F405A/Y407V
For B4, the binding result (in test [1]; in test [2]; in the test with human FcγRIa; in test [3]) was “binds” throughout.

B5: Sample No. 92 (antibody, human IgG1, kappa)
heavy: QVQLQESGPGLVRPSQTLSLTCTVSGYSITSDHAWSWVRQPPGRGLEWIGYISYSGITTYNPSLKSRVTMLRDTSKNQFSLRLSSVTAADTAVYYCARSLARTTAMDYWGQGSLVTVSSASTKGPSVFPLAPSSKSTSGGTAALGCLVKDYFPEPVTVSWNSGALTSGVHTFPAVLQSSGLYSLSSVVTVPSSSLGTQTYICNVNHKPSNTKVDKRVEPKSCDKTHTCPPCPAPELLGGPSVFLFPPKPKDTLMISRTPEVTCVVVDVSHEDPEVKFNWYVDGVEVHNAKTKPREEQYNSTYRVVSVLTVLHQDWLNGKEYKCKVSNKALPAPIEKTISKAKGQPREPRVYTLPPSREEMTENQVSLTCLVKGFYPSDIAVEWESNGQPENNYKTTPPVLVSDGSFTLYSWLTVDKSRWQQGNVFSCSVMHEALHNHYTQKSLSLSP
light: not shown
notes: also called Q347R/K360E/D399V/F405T/K409W
As for B5, the binding result (in test [1]; in test [2]; with human FcγRIa; in test [3]) was “binds” in each case.

B6: Sample No. 97 (antibody, human IgG1, kappa)
heavy: QVQLQESGPGLVRPSQTLSLTCTVSGYSITSDHAWSWVRQPPGRGLEWIGYISYSGITTYNPSLKSRVTMLRDTSKNQFSLRLSSVTAADTAVYYCARSLARTTAMDYWGQGSLVTVSSASTKGPSVFPLAPSSKSTSGGTAALGCLVKDYFPEPVTVSWNSGALTSGVHTFPAVLQSSGLYSLSSVVTVPSSSLGTQTYICNVNHKPSNTKVDKRVEPKSCDKTHTCPPCPAPELLGGPSVFLFPPKPKDTLMISRTPEVTCVVVDVSHEDPEVKFNWYVDGVEVHNAKTKPREEQYNSTYRVVSVLTVLHQDWLNGKEYKCKVSNKALPAPIEKTISKAKGQPREPQVYTLPPSRKEMTKNQVSLTCLVKGFYPSDIAVEWESNGQPENNYKTTPPVLKSDGSFFLYSELTVDKSRWQQGNVFSCSVMHEALHNHYTQESLSLSP
light: not shown
notes: also called E356K/D399K/K409E/K439E
In the case of B6, the binding result (in test [1]; in test [2]; with human FcγRIa; in test [3]) was “binds” in each case.

B7: Sample No. 121, IgG1 antibody with T350V/L351Y/T366L/K392L/T394W/F405A/Y407V (heavy chain SEQ ID NO: 60, light chain SEQ ID NO: 61) (antibody)
heavy: QVQLQESGPGLVRPSQTLSLTCTVSGYSITSDHAWSWVRQPPGRGLEWIGYISYSGITTYNPSLKSRVTMLRDTSKNQFSLRLSSVTAADTAVYYCARSLARTTAMDYWGQGSLVTVSSASTKGPSVFPLAPSSKSTSGGTAALGCLVKDYFPEPVTVSWNSGALTSGVHTFPAVLQSSGLYSLSSVVTVPSSSLGTQTYICNVNHKPSNTKVDKRVEPKSCDKTHTCPPCPAPELLGGPSVFLFPPKPKDTLMISRTPEVTCVVVDVSHEDPEVKFNWYVDGVEVHNAKTKPREEQYNSTYRVVSVLTVLHQDWLNGKEYKCKVSNKALPAPIEKTISKAKGQPREPQVYVYPPSREEMTKNQVSLLCLVKGFYPSDIAVEWESNGQPENNYLTWPPVLDSDGSFALVSKLTVDKSRWQQGNVFSCSVMHEALHNHYTQKSLSLSP
light: not shown
Take B7: binding in test [4] was characterised by a dissociation constant (Kd) of 1.73 µM.

B8: Sample No. 109 (antibody, human IgG1, kappa)
heavy: QVQLQESGPGLVRPSQTLSLTCTVSGYSITSDHAWSWVRQPPGRGLEWIGYISYSGITTYNPSLKSRVTMLRDTSKNQFSLRLSSVTAADTAVYYCARSLARTTAMDYWGQGSLVTVSSASTKGPSVFPLAPSSKSTSGGTAALGCLVKDYFPEPVTVSWNSGALTSGVHTFPAVLQSSGLYSLSSVVTVPSSSLGTQTYICNVNHKPSNTKVDKRVEPKSCDKTHTCPPCPAPELLGGPSVFLFPPKPKDTLMISRTPEVTCVVVDVSHEDPEVKFNWYVDGVEVHNAKTKPREEQYNSTYRVVSVLTVLHQDWLNGKEYKCKVSNKALPAPIEKTISKAKGQPREPQVYTLPPSRKEMTKNQVSLTCLVKGFYPSDIAVEWESNGQPENNYDTTPPVLKSDGSFFLYSKLTVDKSRWQQGNVFSCSVMHEALHNHYTQESLSLSP
light: not shown
notes: also called E356K/K392D/D399K/K439E
B8: the binding result (in test [1]; in test [2]; with human FcγRIa; in test [3]) was “binds” throughout.

B9: Sample No. 100 (antibody, human IgG1, kappa)
heavy: QVQLQESGPGLVRPSQTLSLTCTVSGYSITSDHAWSWVRQPPGRGLEWIGYISYSGITTYNPSLKSRVTMLRDTSKNQFSLRLSSVTAADTAVYYCARSLARTTAMDYWGQGSLVTVSSASTKGPSVFPLAPSSKSTSGGTAALGCLVKDYFPEPVTVSWNSGALTSGVHTFPAVLQSSGLYSLSSVVTVPSSSLGTQTYICNVNHKPSNTKVDKRVEPKSCDKTHTCPPCPAPELLGGPSVFLFPPKPKDTLMISRTPEVTCVVVDVSHEDPEVKFNWYVDGVEVHNAKTKPREEQYNSTYRVVSVLTVLHQDWLNGKEYKCKVSNKALPAPIEKTISKAKGQPREPEVYTLPPYREEMTKNQVSLYCLVKGFYPSDIAVEWESNGQPENNYKTTPPVLDSDGSFFLTSKLTVDKSRWQQGNVFSCSVMHEALHNHYTQKSLSLSP
light: not shown
notes: also called Q347E/S354Y/T366Y/Y407T
Take B9: the binding result (in test [1]; in test [2]; with human FcγRIa; in test [3]) was “binds” in each case.

B10: Sample No. 112 (antibody, human IgG1, kappa)
heavy: QVQLQESGPGLVRPSQTLSLTCTVSGYSITSDHAWSWVRQPPGRGLEWIGYISYSGITTYNPSLKSRVTMLRDTSKNQFSLRLSSVTAADTAVYYCARSLARTTAMDYWGQGSLVTVSSASTKGPSVFPLAPSSKSTSGGTAALGCLVKDYFPEPVTVSWNSGALTSGVHTFPAVLQSSGLYSLSSVVTVPSSSLGTQTYICNVNHKPSNTKVDKRVEPKSCDKTHTCPPCPAPELLGGPSVFLFPPKPKDTLMISRTPEVTCVVVDVSHEDPEVKFNWYVDGVEVHNAKTKPREEQYNSTYRVVSVLTVLHQDWLNGKEYKCKVSNKALPAPIEKTISKAKGQPREPQVCTLPPSRECMTKNQVSLTCLVKGFYPSDIAVEWESNGQPENNYDTTPPVLKSDGSFFLYSKLTVDKSRWQQGNVFSCSVMHEALHNHYTQKSLSLSP
light: not shown
notes: also called Y349C/E357C/K392D/D399K
In the case of B10, the binding result (in test [1]; in test [2]; in the test with human FcγRIa; in test [3]) was “binds” throughout.
